Test results: PMC12709188, “Expanding the CarD interaction network: CrsL is a novel transcription regulator in actinobacteria” (Nucleic Acids Research, 2025)
Values joined by “and” are separate entries in the source; they are usually repeats but may differ in a detail not shown here. Equal entries are not always repeated.

B1: CarD–NT (in vitro purified CarD) (natural protein, M. smegmatis, UniProt A0R561 1-162, looked up)
chain: MIFKVGDTVVYPHHGAALIEAIETRTIKGEQKEYLVLKVAQGDLTVRVPADNAEYVGVRDVVGQEGLDKVFQVLRAPHTEEPTNWSRRYKANLEKLASGDVNKVAEVVRDLWRRDQERGLSAGEKRMLAKARQILVGELALAENTDDAKAETILDEVLAAAS
notes: CarD, transcription factor of M. smegmatis; dimer when alone (native gel); Uniformly 13C,15N-labelled for some NMR samples; also called [^13C,^15N]-CarD; source: E. coli (strain LK3209), purified (Ni-NTA, TEV protease cleavage; for NMR also Superdex 75)

Tests used:
[1] = target: the molecule itself; test: native gel or EMSA; purified CrsL, CarD and DnaK mixed in 1× STB buffer (50 mM Tris–HCl pH 8.0, 5 mM Mg acetate, 100 μM DTT, 50 mM KCl, 50 μg/ml BSA), 37°C 15 min; 8% native gel at 4°C; Coomassie stain, bands confirmed by mass spectrometry
[2] = target: B1; test: ITC; 27.6 μM CarD in the cell titrated by 315 μM CrsL; 27°C; 50 mM Tris–HCl, 100 mM NaCl, 0.5 mM DTT, pH 7.5; one-site binding model; triplicate; settings: both partners purified

Binder	stoichiometry N [1]	Kd [2]	dH [2]	stoichiometry N [2]
B1	2			
CrsL–His (in vitro purified CrsL) (natural protein, M. smegmatis, UniProt A0R4M8 1-54, looked up, CrsL, small protein (predicted MW 5.7 kDa) encoded by MSMEG_5890 of M. smegmatis; 15N- or 13C,15N-labelled for NMR; also called [^15N]-CrsL; [^13C,^15N]-CrsL; source: E. coli (strain LK3499), purified (Ni-NTA, Superdex 75; for NMR Superdex 30)) MPAKTDPADLGDVEPLADDTASQARRVVATYATDADECRMFLSMLGIGPSKTEV		4.3 nM and 4.5 nM and 3.3 nM	-87.9 kJ/mol	1
